Measurements published in patent publication US20240376171A1 (Hoffmann-La Roche, published 2024).

B1: human TA PD1-IL2v, MT204, 2xPQARK, in line (antibody, human IgG1, kappa, L234A L235A)
light: DIVMTQSPDSLAVSLGERATINCKASESVDTSDNSFIHWYQQKPGQSPKLLIYRSSTLESGVPDRFSGSGSGTDFTLTISSLQAEDVAVYYCQQNYDVPWTFGQGTKVEIKRTVAAPSVFIFPPSDEQLKSGTASVVCLLNNFYPREAKVQWKVDNALQSGNSQESVTEQDSKDSTYSLSSTLTLSKADYEKHKVYACEVTHQGLSSPVTKSFNRGEC
heavy 1: EVQLLESGGGLVQPGGSLRLSCAASGFSFSSYTMSWVRQAPGKGLEWVATISGGGRDIYYPDSVKGRFTISRDNSKNTLYLQMNSLRAEDTAVYYCVLLTGRVYFALDSWGQGTLVTVSSASTKGPSVFPLAPSSKSTSGGTAALGCLVKDYFPEPVTVSWNSGALTSGVHTFPAVLQSSGLYSLSSVVTVPSSSLGTQTYICNVNHKPSNTKVDKKVEPKSCDKTHTCPPCPAPEAAGGPSVFLFPPKPKDTLMISRTPEVTCVVVDVSHEDPEVKFNWYVDGVEVHNAKTKPREEQYNSTYRVVSVLTVLHQDWLNGKEYKCKVSNKALGAPIEKTISKAKGQPREPQVCTLPPSRDELTKNQVSLSCAVKGFYPSDIAVEWESNGQPENNYKTTPPVLDSDGSFFLVSKLTVDKSRWQQGNVFSCSVMHEALHNHYTQKSLSLSPG
heavy 2: not shown
notes: Bivalent human PD1-targeted human IgG PG LALA with IL2v and MT204 scFv mask 'in-line' on the C-terminus of the Fc knob chain, two PQARK sites; also called P1AG9606; P1AG9606-008
B2: TA PD1-IL2v, MT204, non cleavable, N-term (antibody, human IgG1, kappa, L234A L235A)
light chain of the anti-human PD1 Fab (C02011851-A): B1 light
heavy chain, Fc hole, PG LALA (C01483382-H): EVQLLESGGGLVQPGGSLRLSCAASGFSFSSYTMSWVRQAPGKGLEWVATISGGGRDIYYPDSVKGRFTISRDNSKNTLYLQMNSLRAEDTAVYYCVLLTGRVYFALDSWGQGTLVTVSSASTKGPSVFPLAPSSKSTSGGTAALGCLVKDYFPEPVTVSWNSGALTSGVHTFPAVLQSSGLYSLSSVVTVPSSSLGTQTYICNVNHKPSNTKVDKKVEPKSCDKTHTCPPCPAPEAAGGPSVFLFPPKPKDTLMISRTPEVTCVVVDVSHEDPEVKFNWYVDGVEVHNAKTKPREEQYNSTYRVVSVLTVLHQDWLNGKEYKCKVSNKALGAPIEKTISKAKGQPREPQVCTLPPSRDELTKNQVSLSCAVKGFYPSDIAVEWESNGQPENNYKTTPPVLDSDGSFFLVSKLTVDKSRWQQGNVFSCSVMHEALHNHYTQKSLSLSPGK
MT204 scFv mask - non-cleavable linker - IL2v - Fc knob chain, PG LALA (C2184220946-K): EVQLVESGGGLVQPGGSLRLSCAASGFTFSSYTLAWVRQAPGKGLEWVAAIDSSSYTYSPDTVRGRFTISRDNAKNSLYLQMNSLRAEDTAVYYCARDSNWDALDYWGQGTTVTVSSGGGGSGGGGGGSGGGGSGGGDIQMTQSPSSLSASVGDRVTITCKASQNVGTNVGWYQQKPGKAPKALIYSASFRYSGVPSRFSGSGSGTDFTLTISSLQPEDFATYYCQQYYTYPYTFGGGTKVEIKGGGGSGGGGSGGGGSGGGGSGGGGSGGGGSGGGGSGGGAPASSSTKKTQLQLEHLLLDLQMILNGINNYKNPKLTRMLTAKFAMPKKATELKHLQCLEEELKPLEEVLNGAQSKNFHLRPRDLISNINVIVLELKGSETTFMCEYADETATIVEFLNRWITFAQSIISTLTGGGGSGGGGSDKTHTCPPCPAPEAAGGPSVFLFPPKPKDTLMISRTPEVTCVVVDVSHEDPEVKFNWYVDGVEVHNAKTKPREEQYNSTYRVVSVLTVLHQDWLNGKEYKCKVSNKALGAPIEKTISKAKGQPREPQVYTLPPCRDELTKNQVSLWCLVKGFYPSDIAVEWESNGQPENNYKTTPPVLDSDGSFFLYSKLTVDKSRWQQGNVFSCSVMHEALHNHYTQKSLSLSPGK
notes: also called human TA PD1-IL2v, MT204, non cleavable, N-term; P1AG0929
B3: human TA PD1-IL2v, MT204, non cleavable, in line (antibody, human IgG1, kappa, L234A L235A)
light: B1 light
heavy 1: B1 heavy 1
heavy 2: not shown
notes: Bivalent human PD1-targeted human IgG PG LALA with masked IL2v in-line on the Fc knob chain and no matriptase sites (non-cleavable control); also called P1AG5740; P1AG5740-004
B4: human PD1-IL2v, unmasked, in line (antibody, human IgG1, kappa, L234A L235A)
light: B1 light
heavy 1: B1 heavy 1
heavy 2: not shown
notes: Bivalent human PD1-targeted human IgG PG LALA with IL2v fused to the C-terminus of the Fc knob chain (non-masked control); also called P1AA7146; P1AA7146-006
B5: human TA PD1-IL2v, MT204, 2xPQARK, knob/hole (antibody, human IgG1, kappa, L234A L235A)
light: B1 light
heavy 1: EVQLLESGGGLVQPGGSLRLSCAASGFSFSSYTMSWVRQAPGKGLEWVATISGGGRDIYYPDSVKGRFTISRDNSKNTLYLQMNSLRAEDTAVYYCVLLTGRVYFALDSWGQGTLVTVSSASTKGPSVFPLAPSSKSTSGGTAALGCLVKDYFPEPVTVSWNSGALTSGVHTFPAVLQSSGLYSLSSVVTVPSSSLGTQTYICNVNHKPSNTKVDKKVEPKSCDKTHTCPPCPAPEAAGGPSVFLFPPKPKDTLMISRTPEVTCVVVDVSHEDPEVKFNWYVDGVEVHNAKTKPREEQYNSTYRVVSVLTVLHQDWLNGKEYKCKVSNKALGAPIEKTISKAKGQPREPQVCTLPPSRDELTKNQVSLSCAVKGFYPSDIAVEWESNGQPENNYKTTPPVLDSDGSFFLVSKLTVDKSRWQQGNVFSCSVMHEALHNHYTQKSLSLSPGGGGGSGGGGSPQARKGGGGSGGGGSGGGGSGGGGSGGGEVQLVESGGGLVQPGGSLRLSCAASGFTFSSYTLAWVRQAPGKGLEWVAAIDSSSYTYSPDTVRGRFTISRDNAKNSLYLQMNSLRAEDTAVYYCARDSNWDALDYWGQGTTVTVSSGGGGSGGPQARKGGGGSGGGDIQMTQSPSSLSASVGDRVTITCKASQNVGTNVGWYQQKPGKAPKALIYSASFRYSGVPSRFSGSGSGTDFTLTISSLQPEDFATYYCQQYYTYPYTFGGGTKVEIK
heavy 2: not shown
notes: Bivalent human PD1-targeted human IgG PG LALA; also called P1AG9607; P1AG9607-006

Biological target: T1, PD1 on activated human CD4 and CD8 T cells (human, UniProt Q15116 25-288)
T1 construct: whole, on cells; Endogenous PD1 on CD3/CD28-stimulated T cells; also called human PD1; PD1 receptor
T1 sequence (Q15116 25-288): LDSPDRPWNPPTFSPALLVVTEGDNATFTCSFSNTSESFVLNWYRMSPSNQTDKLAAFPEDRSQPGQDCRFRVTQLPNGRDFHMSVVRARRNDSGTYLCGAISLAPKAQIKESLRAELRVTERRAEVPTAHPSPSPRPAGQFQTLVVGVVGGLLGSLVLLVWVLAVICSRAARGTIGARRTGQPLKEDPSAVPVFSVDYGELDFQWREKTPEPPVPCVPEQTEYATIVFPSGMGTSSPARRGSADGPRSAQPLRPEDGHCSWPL
Experiment: flow cytometry, CD3/CD28-activated human PBMCs gated on CD3+CD8+ T cells, PE anti-human Fc secondary antibody; TA constructs pre-incubated with Matriptase, unmasked controls not
Procedure: (§1) Three formats of TA PD1-IL2v molecules and respective controls were assessed for their capacity to bind to activated PD1 positive CD8 T cells and CD4 T cells within PBMCs in comparison to the respective unmasked molecules.
(§2) PBMCs were purchased from Biomex from a healthy donor (Lot 5000729PB). The PBMCs were stimulated for three days with CD3 and CD28 to induce upregulation of PD1 on T cells. Therefore, PBMCs were seeded in medium (RPMI1640, 10% FCS, 2 mM Glutamine) into cell culture flasks that were coated for 1 hour at 37° C. with 1 μg/ml CD3 (clone OKT3, 302914, BioLegend). CD28 was added in solution to the PBMCs at a concentration of 1 μg/ml (clone CD28.2, 302914, BioLegend). After three days, PBMCs were harvested and transferred into a 96 well round bottom plate (200′000 cells per well). The cells were washed with FACS buffer (PBS, 2% FBS, 5 mM EDTA, 0.025% NaN3) and stained with 30 μl of corresponding TA PD1-IL2v constructs in FACS buffer for 30 min at 4° C. Prior to the staining, 20 μg of the TA PD1-IL2v constructs were digested with 4 μl Matriptase (Enzo ˜2.5 U/μl, ALX-201-246-U25, Lot 12152015, or without Matriptase for the unmasked controls) for 2 hours at 37° C. in 40 μl Matriptase buffer (50 mM Tris, 50 mM NaCl, 0.01% Tween 20, pH 9.0). After the staining, the cells were washed twice with FACS buffer to remove unbound molecules. Then 30 μl of the diluted PE anti-human Fc specific secondary antibody (1:50 dilution, 109-116-170, Jackson ImmunoResearch) was added to the cells. After 30 min incubation at 4° C. the cells were washed twice with FACS buffer. To detect T cells, PBMCs were stained with 30 μl of a mixture of CD3 PE/Cyanine7 (clone UCHT1, 300420, BioLegend), CD4 FITC (clone RPA-T4, 300528, BioLegend) and CD8 APC/Cyanine7 (clone HIT8a, 300926, BioLegend) for 30 min at 4° C. The unbound antibodies were removed by washing twice with FACS buffer. Finally the cells resuspended in 150 μl FACS buffer and measured using a BD Fortessa gating on CD3+CD4+ cells (CD4 T cells) and CD3+CD8+ cells (CD8 T cells).

| EC50 (read off the curve) [nM] | Binder |
| --- | --- |
| ~1 | B1 |
| ~2 | B2 |
| ~1 | B3 |
| ~0.8 | B4 |
| ~1 | B5 |

Biological target: T1, PD1 on activated human CD4 and CD8 T …
Experiment: flow cytometry, CD3/CD28-activated human PBMCs gated on CD3+CD4+ T cells, PE anti-human Fc secondary antibody; TA constructs pre-incubated with Matriptase, unmasked controls not
Procedure: as §1, §2

| EC50 (read off the curve) [nM] | Binder |
| --- | --- |
| ~0.8 | B1 |
| ~1 | B2 |
| ~0.8 | B3 |
| ~0.7 | B4 |
| ~0.8 | B5 |

Biological target: T1, PD1 on activated human CD4 and CD8 T …
Experiment: flow cytometry, CD3/CD28-activated human PBMCs gated on CD3+CD4+ T cells, FITC anti-human Fc secondary antibody; no Matriptase digestion described
Procedure: (§3) PBMCs were bought from Biomex from a healthy donor (Lot 5000899PB). The PBMCs were stimulated for 3 days with CD3 and CD28 to induce upregulation of PD1 on T cells. Therefore, PBMCs were seeded in medium (RPMI1640, 10% FCS, 2 mM Glutamine) into cell culture flasks that were coated for 1 h at 37° C. with 1 μg/ml CD3 (clone OKT3, 302914, BioLegend). CD28 was added in solution to the PBMCs at a concentration of 1 μg/ml (clone CD28.2, 302914, BioLegend). After three days, PBMCs were harvested and transferred into a 96 well round bottom plate (200′000 cells per well). The cells were washed with FACS buffer (PBS, 2% FBS, 5 mM EDTA, 0.025% NaN3) and stained with 30 μl of corresponding TA PD1-IL2v constructs in FACS buffer for 30 min at 4° C. The cells were washed twice with FACS buffer to remove unbound molecules. Then 30 μl of the diluted FITC anti-mouse Fc specific secondary antibody (1:50 dilution, 115-096-071, Jackson ImmunoResearch) or for the human constructs the diluted FITC anti-human Fc specific secondary antibody (1:50 dilution, 115-096-098, Jackson ImmunoResearch) was added to the cells. After 30 min incubation at 4° C. the cells were washed twice with FACS buffer. To detect T cells, PBMCs were stained with 30 μl of a mixture of CD3 PE/Cyanine7 (clone UCHT1, 300420, BioLegend), CD4 PE (clone RPA-T4, 300508, BioLegend) and CD8 APC (clone SK1, 344722, BioLegend) for 30 min at 4° C. The unbound antibodies were removed by washing twice with FACS buffer. Finally the cells were resuspended in 150 μl FACs buffer and measured using a BD Fortessa gating on CD3+CD4+ cells (CD4 T cells) and CD3+CD8+ cells (CD8 T cells).

| EC50 (read off the curve) [nM] | Binder |
| --- | --- |
| ~2 | B1 |
| ~2 | B3 |
| ~2 | B4 |

Biological target: T1, PD1 on activated human CD4 and CD8 T …
Experiment: flow cytometry, CD3/CD28-activated human PBMCs gated on CD3+CD8+ T cells, FITC anti-human Fc secondary antibody; no Matriptase digestion described
Procedure: as §3

| EC50 (read off the curve) [nM] | Binder |
| --- | --- |
| ~2 | B1 |
| ~2 | B3 |
| ~2 | B4 |
